{"source": "paper PMC4780704", "about": "“A Parallel G Quadruplex-Binding Protein Regulates the Boundaries of DNA Elimination Events of Tetrahymena thermophila”", "key": {"MBP-Lia3": {"target": "T1, MBP-Lia3 (Tetrahymena thermophila, UniProt A3F815 1-322)", "T1 sequence": "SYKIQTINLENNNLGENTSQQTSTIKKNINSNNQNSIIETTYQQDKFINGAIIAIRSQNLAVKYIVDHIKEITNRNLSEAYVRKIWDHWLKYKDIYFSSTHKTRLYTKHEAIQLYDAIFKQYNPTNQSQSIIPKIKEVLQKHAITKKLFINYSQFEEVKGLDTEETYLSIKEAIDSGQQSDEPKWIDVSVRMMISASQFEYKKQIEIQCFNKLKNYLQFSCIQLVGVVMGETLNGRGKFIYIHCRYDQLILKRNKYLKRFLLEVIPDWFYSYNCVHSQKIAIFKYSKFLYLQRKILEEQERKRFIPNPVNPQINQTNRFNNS", "assay": "competition; excess vs G4-M1 probe; 400 nM protein; EMSA: 10 mM Tris pH 7.5, 1 mM EDTA, 0.1 mM DTT, 5% glycerol, 0.010 mg/ml BSA, 100 mM KCl (or 100 mM LiCl to limit G4), 4 nM probe, RT", "settings": "protein: recombinant; tags: N-terminal MBP-TEV-His; linear, no G4"}, "His-Lia3 [1]": {"target": "T2, His-Lia3 (Tetrahymena thermophila, UniProt A3F815 1-322)", "T2 sequence": "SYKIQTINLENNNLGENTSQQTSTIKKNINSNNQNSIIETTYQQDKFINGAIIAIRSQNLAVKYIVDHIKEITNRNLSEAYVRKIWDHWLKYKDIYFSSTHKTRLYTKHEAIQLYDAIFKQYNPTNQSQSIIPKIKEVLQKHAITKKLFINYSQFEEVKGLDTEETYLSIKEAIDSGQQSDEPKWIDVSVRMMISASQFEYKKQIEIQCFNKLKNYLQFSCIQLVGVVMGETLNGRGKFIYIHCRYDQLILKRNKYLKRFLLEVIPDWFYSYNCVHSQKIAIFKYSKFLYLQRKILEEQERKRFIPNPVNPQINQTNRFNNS", "assay": "EMSA; 100 mM KCl; EMSA: 10 mM Tris pH 7.5, 1 mM EDTA, 0.1 mM DTT, 5% glycerol, 0.010 mg/ml BSA, 100 mM KCl (or 100 mM LiCl to limit G4), 4 nM probe, RT", "settings": "protein: recombinant; tags: N-terminal His; label: 32P (5' PNK); mixed G4 (100 mM KCl)"}, "His-Lia3 [2]": {"target": "T2, His-Lia3", "assay": "competition; 5X/20X vs G4-M1 probe; EMSA: 10 mM Tris pH 7.5, 1 mM EDTA, 0.1 mM DTT, 5% glycerol, 0.010 mg/ml BSA, 100 mM KCl (or 100 mM LiCl to limit G4), 4 nM probe, RT", "settings": "protein: recombinant; tags: N-terminal His; parallel intermolecular G4, 4 strands (100 mM KCl)"}}}
{"binder": "TTTATTAATCAAAAACCCGGTAAATAATAA (ssDNA)", "note": "[M1-C3 (C3G2 mutant)]", "values": [{"measurement": "binding result", "setting": "MBP-Lia3", "value": "no binding"}]}
{"binder": "TTGGGGTTGGGGTTGGGGTTGGGG (structured_DNA)", "note": "[G4 Tetrahymena telomere]", "values": [{"measurement": "Kd", "setting": "His-Lia3 [1]", "value": 11.5, "unit": "µM"}]}
{"binder": "TTCAAGACAAAAAAAGGGGGATGGGTTTCC (structured_DNA)", "note": "[G4-M2]", "values": [{"measurement": "binding result", "setting": "His-Lia3 [2]", "value": "binds"}]}
